Data taken from publication PMC10907165, “Discovery and structural characterization of the D-box, a conserved TonB motif that couples an inner-membrane motor to outer-membrane transport” (The Journal of Biological Chemistry, 2024).
Ends that are not written are not given here.

B1: AF488-labeled D-box peptide (QPISVTMVTPADC) (peptide)
peptide: QPISVTMVTPADC(AF488 maleimide)
notes: TonB, E. coli, residues 43-54 (D-box peptide); cysteine added at the C-terminus for labelling with the maleimide dye; not a TonB residue; also called fluorescently labeled D-box peptide; fluorophore-labeled D-box peptide; source: synthetic peptide (Biomatik Corporation), labelled with AF488-maleimide, purified on a C18 column
B2: ExbD periplasmic domain (E. coli ExbD residues 59-141) (domain or fragment)
chain: GRPEKPVYLSVKADNSMFIGNDPVTDETMITALNALTEGKKDTTIFFRADKTVDYETLMKVMDTLHQAGYLKIGLVGEETAKAK
notes: single glycine residue left upstream of Arg-59 after proteolytic removal of the SUMO tag; ExbD, E. coli, periplasmic domain, residues 59-141 (begins at Arg-59); codon-optimised synthetic gene in pETHSUL; the methods and legends say 59-141; Two copies of this domain hold one D-box peptide in the crystals and by ITC; also called ExbD_(59-141); ExbD C-terminal periplasmic domain; source: E. coli …
B3: D-box peptide (residues 43 to 54 of E. coli TonB) (peptide)
peptide: QPISVTMVTPAD
notes: TonB, E. coli, residues 43-54, holds the D-box motif; The description of the crystal structure numbers the peptide Gln-55 to Thr-63, that is 12 higher than the TonB numbers; also called TonB D-box peptide; source: synthetic peptide (VWR Scientific)

Columns and labels:
[1] = target: B2; test: fluorescence polarisation; fluorescence anisotropy; 100 nM AF488-labeled peptide, ExbD protein varied; 40 mM Tris pH 8.0, 150 mM NaCl; room temperature; details: both partners purified
[2] = target: the molecule itself; test: crystal structure; ExbD periplasmic domain mixed with the D-box peptide; crystals from ammonium sulfate; orthorhombic and tetragonal forms, about 1.4 A
[3] = target: B2; test: ITC; D-box peptide (1 mM) injected into 100 uM ExbD protein at 288 K; 10 mM MES pH 5.3, 60 mM NaCl; two-state binding model; details: both partners purified

Binder: B1
- Kd [1]: 45 ± 9 µM

Binder: B2
- binding result [2]: binds

Binder: B3
- Kd [3]: 19 ± 1 µM
- stoichiometry N [3]: 0.5 D-box peptide per ExbD
